The target in assay [1] is T1, purified human αvβ3 integrin protein (human, UniProt P06756 31-1048; P05106 27-788).
T1 construct: Bought heterodimer; also called ABI; purified αvβ3 integrin
Briefly: competition with 125I-echistatin on purified human αvβ3 integrin, filter plate.

Assay [2] addresses T1, purified human αvβ3 integrin protein. Briefly: competition with 125I-echistatin on purified αvβ3 integrin, filtration plate (Example 3).
The target is the same in assay [3]. Put plainly: competition with 125I-echistatin on purified human αvβ3 integrin, filter plate. The source holds these as a separate data set.
For assay [4] the target is unchanged. Described as above. This is another data set of the same source.

[ ]: non-standard residue; d: D form. The star is where a group is joined. Cypate = CC1(C)C(/C=C/C=C/C=C/C=C2/N(CCC(=O)*)c3ccc4ccccc4c3C2(C)C)=[N+](CCC(=O)O)c2ccc3ccccc3c21

In patent publication US20090028788A1 (WASHINGTON UNIVERSITY IN ST LOUIS, published 2009) one finds IC50 data, which are given here for ten molecules.

By IC50 is commonly meant the midpoint of a concentration-inhibition curve. Read a low IC50 as inhibition by little substance.

With “Cypate(Octreotate)1-(Arg-Gly-Asp-NH2)1 (peptide)”, the IC50 in assay [1] was determined as 4.67 µM.

B1: cyclo[RGDfVK] (peptide)
peptide: RGDXVK
HELM: PEPTIDE1{R.G.D.[dF].V.K}$PEPTIDE1,PEPTIDE1,1:R1-6:R2$$$V2.0
SMILES: CC(C)[C@@H]1NC(=O)[C@@H](Cc2ccccc2)NC(=O)[C@H](CC(=O)O)NC(=O)CNC(=O)[C@H](CCCNC(=N)N)NC(=O)[C@H](CCCCN)NC1=O
As to B1, the IC50 in assay [2] was 1.93 µM.

B2: Cypate-cyclo(CRGDSC)-NH2 (peptide)
peptide: CRGDSC
HELM: PEPTIDE1{[CC1(C)C(/C=C/C=C/C=C/C=C2/N(CCC(=O)[*:2])c3ccc4ccccc4c3C2(C)C)=[N+](CCC(=O)O)c2ccc3ccccc3c21].C.R.G.D.S.C.[am]}$PEPTIDE1,PEPTIDE1,2:R3-7:R3$$$V2.0
SMILES: CC1(C)C(/C=C/C=C/C=C/C=C2/N(CCC(=O)N[C@H]3CSSC[C@@H](C(N)=O)NC(=O)[C@H](CO)NC(=O)[C@H](CC(=O)O)NC(=O)CNC(=O)[C@H](CCCNC(=N)N)NC3=O)c3ccc4ccccc4c3C2(C)C)=[N+](CCC(=O)O)c2ccc3ccccc3c21
notes: also called Cypate-[Cyclo-(Cys-Arg-Gly-Asp-Ser-Cys)]1
Turning to B2, the IC50 in assay [3] is 1.14 µM.

B3: Cypate-cyclo(CRGDLC)-NH2 (peptide)
peptide: CRGDLC
HELM: PEPTIDE1{[CC1(C)C(/C=C/C=C/C=C/C=C2/N(CCC(=O)[*:2])c3ccc4ccccc4c3C2(C)C)=[N+](CCC(=O)O)c2ccc3ccccc3c21].C.R.G.D.L.C.[am]}$PEPTIDE1,PEPTIDE1,2:R3-7:R3$$$V2.0
SMILES: CC(C)C[C@@H]1NC(=O)[C@H](CC(=O)O)NC(=O)CNC(=O)[C@H](CCCNC(=N)N)NC(=O)[C@@H](NC(=O)CCN2/C(=C/C=C/C=C/C=C/C3=[N+](CCC(=O)O)c4ccc5ccccc5c4C3(C)C)C(C)(C)c3c2ccc2ccccc32)CSSC[C@@H](C(N)=O)NC1=O
For B3, in assay [3], the half-maximal inhibitory concentration (IC50) came to 9.64 µM.

B4: Cypate-cyclo(CRGDDC)-NH2 (peptide)
peptide: CRGDDC
HELM: PEPTIDE1{[CC1(C)C(/C=C/C=C/C=C/C=C2/N(CCC(=O)[*:2])c3ccc4ccccc4c3C2(C)C)=[N+](CCC(=O)O)c2ccc3ccccc3c21].C.R.G.D.D.C.[am]}$PEPTIDE1,PEPTIDE1,2:R3-7:R3$$$V2.0
SMILES: CC1(C)C(/C=C/C=C/C=C/C=C2/N(CCC(=O)N[C@H]3CSSC[C@@H](C(N)=O)NC(=O)[C@H](CC(=O)O)NC(=O)[C@H](CC(=O)O)NC(=O)CNC(=O)[C@H](CCCNC(=N)N)NC3=O)c3ccc4ccccc4c3C2(C)C)=[N+](CCC(=O)O)c2ccc3ccccc3c21
In assay [3], B4 returned an IC50 of 1.89 µM.

B5: Cypate-Gly-Arg-Asp-Ser-Pro-Lys-OH (peptide)
peptide: GRDSPK
HELM: PEPTIDE1{[CC1(C)C(/C=C/C=C/C=C/C=C2/N(CCC(=O)[*:2])c3ccc4ccccc4c3C2(C)C)=[N+](CCC(=O)O)c2ccc3ccccc3c21].G.R.D.S.P.K}$$$$V2.0
SMILES: CC1(C)C(/C=C/C=C/C=C/C=C2/N(CCC(=O)NCC(=O)N[C@@H](CCCNC(=N)N)C(=O)N[C@@H](CC(=O)O)C(=O)N[C@@H](CO)C(=O)N3CCC[C@H]3C(=O)N[C@@H](CCCCN)C(=O)O)c3ccc4ccccc4c3C2(C)C)=[N+](CCC(=O)O)c2ccc3ccccc3c21
notes: also called Cypate-GRDSPK; Cypate-GRDSPK-OH
On to B5, for which the IC50 in assay [4] is 7.02 µM; in assay [2], over 100 µM.

B6: Cypate-cyclo(CRGDGRC)-NH2 (peptide)
peptide: CRGDGRC
HELM: PEPTIDE1{[CC1(C)C(/C=C/C=C/C=C/C=C2/N(CCC(=O)[*:2])c3ccc4ccccc4c3C2(C)C)=[N+](CCC(=O)O)c2ccc3ccccc3c21].C.R.G.D.G.R.C.[am]}$PEPTIDE1,PEPTIDE1,2:R3-8:R3$$$V2.0
SMILES: CC1(C)C(/C=C/C=C/C=C/C=C2/N(CCC(=O)N[C@H]3CSSC[C@@H](C(N)=O)NC(=O)[C@H](CCCNC(=N)N)NC(=O)CNC(=O)[C@H](CC(=O)O)NC(=O)CNC(=O)[C@H](CCCNC(=N)N)NC3=O)c3ccc4ccccc4c3C2(C)C)=[N+](CCC(=O)O)c2ccc3ccccc3c21
For B6, in assay [3], the IC50 stood at 1.09 µM.

B7: Cyclo(Lys(Cypate)-Arg-Gly-Asp-DPhe-Val) (peptide)
peptide: cyclo(K(Cypate)RGD[dF]V)
SMILES: CC(C)[C@@H]1NC(=O)[C@@H](Cc2ccccc2)NC(=O)[C@H](CC(=O)O)NC(=O)CNC(=O)[C@H](CCCNC(=N)N)NC(=O)[C@H](CCCCNC(=O)CCN2/C(=C/C=C/C=C/C=C/C3=[N+](CCC(=O)O)c4ccc5ccccc5c4C3(C)C)C(C)(C)c3c2ccc2ccccc32)NC1=O
notes: also called Cyclo(K^(Cypate)RGDfV); cyclo-[K^(Cypate)RGDfV]
Take B7: the IC50 is 79.5 µM in assay [3], 79.5 µM in assay [4] and 79.1 µM in assay [2].

B8: Cypate-Lys-Arg-Gly-Asp-DPhe-Asp-DPhe-EAhx-NH2 (peptide)
peptide: KRGDXDXX
HELM: PEPTIDE1{[CC1(C)C(/C=C/C=C/C=C/C=C2/N(CCC(=O)[*:2])c3ccc4ccccc4c3C2(C)C)=[N+](CCC(=O)O)c2ccc3ccccc3c21].K.R.G.D.[dF].D.[dF].[O=C(CCCCCN[*:1])[*:2]].[am]}$$$$V2.0
SMILES: CC1(C)C(/C=C/C=C/C=C/C=C2/N(CCC(=O)N[C@@H](CCCCN)C(=O)N[C@@H](CCCNC(=N)N)C(=O)NCC(=O)N[C@@H](CC(=O)O)C(=O)N[C@H](Cc3ccccc3)C(=O)N[C@@H](CC(=O)O)C(=O)N[C@H](Cc3ccccc3)C(=O)NCCCCCC(N)=O)c3ccc4ccccc4c3C2(C)C)=[N+](CCC(=O)O)c2ccc3ccccc3c21
For B8, the IC50 in assay [1] was 0.328 µM.

B9: Cypate-Gly-Arg-Gly-Asp-Ser-Pro-Lys-OH (peptide)
peptide: GRGDSPK
HELM: PEPTIDE1{[CC1(C)C(/C=C/C=C/C=C/C=C2/N(CCC(=O)[*:2])c3ccc4ccccc4c3C2(C)C)=[N+](CCC(=O)O)c2ccc3ccccc3c21].G.R.G.D.S.P.K}$$$$V2.0
SMILES: CC1(C)C(/C=C/C=C/C=C/C=C2/N(CCC(=O)NCC(=O)N[C@@H](CCCNC(=N)N)C(=O)NCC(=O)N[C@@H](CC(=O)O)C(=O)N[C@@H](CO)C(=O)N3CCC[C@H]3C(=O)N[C@@H](CCCCN)C(=O)O)c3ccc4ccccc4c3C2(C)C)=[N+](CCC(=O)O)c2ccc3ccccc3c21
notes: also called Cypate-GRGDSPK; Cypate-GRGDSPK-OH
B9: the IC50 was found to be 0.328 µM in assay [4] and 10.7 µM in assay [2].
